From article PMC5499601 (Nucleic Acids Research, 2017)

B1: wild-type Bacillus subtilis Spo0J (BsSpo0J) (natural protein)
chain: MAKGLGKGINALFNQVDLSEETVEEIKIADLRPNPYQPRKHFDDEALAELKESVLQHGILQPLIVRKSLKGYDIVAGERRFRAAKLAGLDTVPAIVRELSEALMREIALLENLQREDLSPLEEAQAYDSLLKHLDLTQEQLAKRLGKSRPHIANHLRLLTLPENIQQLIAEGTLSMGHGRTLLGLKNKNKLEPLVQKVIAEQLNVRQLEQLIQQLNQNVPRETKKKEPVKDAVLKERESYLQNYFGTTVNIKRQKKKGKIEIEFFSNEDLDRILELLSERES
B2: BsSpo0J G77S (natural protein)
chain: MAKGLGKGINALFNQVDLSEETVEEIKIADLRPNPYQPRKHFDDEALAELKESVLQHGILQPLIVRKSLKGYDIVASERRFRAAKLAGLDTVPAIVRELSEALMREIALLENLQREDLSPLEEAQAYDSLLKHLDLTQEQLAKRLGKSRPHIANHLRLLTLPENIQQLIAEGTLSMGHGRTLLGLKNKNKLEPLVQKVIAEQLNVRQLEQLIQQLNQNVPRETKKKEPVKDAVLKERESYLQNYFGTTVNIKRQKKKGKIEIEFFSNEDLDRILELLSERES
B3: BsSpo0J P62A (natural protein)
chain: MAKGLGKGINALFNQVDLSEETVEEIKIADLRPNPYQPRKHFDDEALAELKESVLQHGILQALIVRKSLKGYDIVAGERRFRAAKLAGLDTVPAIVRELSEALMREIALLENLQREDLSPLEEAQAYDSLLKHLDLTQEQLAKRLGKSRPHIANHLRLLTLPENIQQLIAEGTLSMGHGRTLLGLKNKNKLEPLVQKVIAEQLNVRQLEQLIQQLNQNVPRETKKKEPVKDAVLKERESYLQNYFGTTVNIKRQKKKGKIEIEFFSNEDLDRILELLSERES
B4: BsSpo0J R79A (natural protein)
chain: MAKGLGKGINALFNQVDLSEETVEEIKIADLRPNPYQPRKHFDDEALAELKESVLQHGILQPLIVRKSLKGYDIVAGEARFRAAKLAGLDTVPAIVRELSEALMREIALLENLQREDLSPLEEAQAYDSLLKHLDLTQEQLAKRLGKSRPHIANHLRLLTLPENIQQLIAEGTLSMGHGRTLLGLKNKNKLEPLVQKVIAEQLNVRQLEQLIQQLNQNVPRETKKKEPVKDAVLKERESYLQNYFGTTVNIKRQKKKGKIEIEFFSNEDLDRILELLSERES
B5: BsSpo0J R105E (natural protein)
chain: MAKGLGKGINALFNQVDLSEETVEEIKIADLRPNPYQPRKHFDDEALAELKESVLQHGILQPLIVRKSLKGYDIVAGERRFRAAKLAGLDTVPAIVRELSEALMEEIALLENLQREDLSPLEEAQAYDSLLKHLDLTQEQLAKRLGKSRPHIANHLRLLTLPENIQQLIAEGTLSMGHGRTLLGLKNKNKLEPLVQKVIAEQLNVRQLEQLIQQLNQNVPRETKKKEPVKDAVLKERESYLQNYFGTTVNIKRQKKKGKIEIEFFSNEDLDRILELLSERES

Molecular target: the molecule itself
Assay: SEC

Stoichiometry N, 2:
B1
B2
B3
B4
B5
